Paper doi:10.1101/215566

Target: CBD-NpuDnaE_(NΔ16)
Test: SPR

Kd: 1.6 nM
Substance: NpuDnaEC16-eGFP (domain or fragment)
